Laboratory results published in patent publication US20240409635A1.
Each block holds one binder with its values, some of them ahead of it.

How the values were obtained:
[1] = target: tyrosine-protein kinase Met (c-Met) on human tumor cells (human) (UniProt P08581); assay: cell-based or functional assay
[2] = target: EGFR-BsAb bispecific control antibody (TA1-Fab anti-CD3 x EGFR VHH); assay: BLI self-interaction, AHQ sensor
[3] = target: HER2-BsAb bispecific control antibody (TA1-Fab anti-CD3 x HER2 VHH); assay: BLI self-interaction, AHQ sensor
[4] = target: CEA-BsAb bispecific control antibody (TA1-Fab anti-CD3 x CEA VHH); assay: BLI self-interaction, AHQ sensor
[5] = target: CEA-CAM6-BsAb bispecific control antibody (TA1-Fab anti-CD3 x CEA-CAM6 VHH); assay: BLI self-interaction, AHQ sensor

tyrosine-protein kinase Met (c-Met) on human tumor cells (human), sequence (P08581 25-1390): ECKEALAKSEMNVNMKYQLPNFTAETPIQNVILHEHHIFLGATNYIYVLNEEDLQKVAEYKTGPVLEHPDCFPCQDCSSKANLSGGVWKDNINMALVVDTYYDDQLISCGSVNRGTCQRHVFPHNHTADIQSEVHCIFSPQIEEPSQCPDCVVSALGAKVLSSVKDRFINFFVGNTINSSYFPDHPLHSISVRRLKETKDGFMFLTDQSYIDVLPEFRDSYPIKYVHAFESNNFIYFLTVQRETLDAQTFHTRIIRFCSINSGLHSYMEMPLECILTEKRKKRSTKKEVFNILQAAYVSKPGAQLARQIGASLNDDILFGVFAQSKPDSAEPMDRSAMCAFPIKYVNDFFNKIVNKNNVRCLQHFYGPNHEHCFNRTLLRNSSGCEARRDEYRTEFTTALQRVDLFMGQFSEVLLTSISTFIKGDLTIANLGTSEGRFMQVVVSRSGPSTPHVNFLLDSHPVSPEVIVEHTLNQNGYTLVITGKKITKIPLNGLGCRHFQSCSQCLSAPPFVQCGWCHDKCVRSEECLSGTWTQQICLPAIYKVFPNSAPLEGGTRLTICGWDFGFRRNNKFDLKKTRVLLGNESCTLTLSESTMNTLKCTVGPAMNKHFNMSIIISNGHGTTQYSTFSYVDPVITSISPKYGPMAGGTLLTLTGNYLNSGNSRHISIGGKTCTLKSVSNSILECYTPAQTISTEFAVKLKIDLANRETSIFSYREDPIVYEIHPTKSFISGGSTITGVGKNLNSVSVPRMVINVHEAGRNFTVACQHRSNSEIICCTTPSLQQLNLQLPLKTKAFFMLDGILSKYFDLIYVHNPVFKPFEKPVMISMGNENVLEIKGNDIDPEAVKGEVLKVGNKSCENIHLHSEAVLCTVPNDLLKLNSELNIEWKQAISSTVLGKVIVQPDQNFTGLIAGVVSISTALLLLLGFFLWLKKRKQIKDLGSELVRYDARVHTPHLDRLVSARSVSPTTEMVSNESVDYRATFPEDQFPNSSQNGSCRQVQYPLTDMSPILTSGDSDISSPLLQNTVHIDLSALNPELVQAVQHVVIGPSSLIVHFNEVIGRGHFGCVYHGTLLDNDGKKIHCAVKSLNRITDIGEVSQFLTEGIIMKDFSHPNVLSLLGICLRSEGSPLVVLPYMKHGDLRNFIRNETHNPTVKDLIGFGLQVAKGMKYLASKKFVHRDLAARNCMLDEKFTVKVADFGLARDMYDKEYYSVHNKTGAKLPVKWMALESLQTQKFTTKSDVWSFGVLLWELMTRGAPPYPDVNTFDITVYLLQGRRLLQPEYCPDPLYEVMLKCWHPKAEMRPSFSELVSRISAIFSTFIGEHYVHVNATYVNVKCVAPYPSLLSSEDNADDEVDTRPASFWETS

B1: c-Met-BsAb bispecific control antibody (anti-CD3 TA1 Fab and c-Met VHH) (bispecific antibody, not shown: a dimerising Fc or GST)
heavy: EVKLLESGGGLVQPKGSLKLSCAASGFTFNTYAMNWVRQAPGKGLEWVARIRSKYNNYATYYADSVKDRFTISRDDSQSILYLQMNNLKTEDTAMYYCVRHGNFGNSYVSWFAYWGQGTLVTVSSASTKGPSVFPLAPCSRSTSESTAALGCLVKDYFPEPVTVSWNSGALTSGVHTFPAVLQSSGLYSLSSVVTVPSSSLGTKTYTCNVDHKPSNTKVDKRV
chain: QVKLEESGGDLVQPGGSLRLSCVGSGSIFSYTAMGWYRQAPGKQRELVATIHSGGNINYADSVKGRFTISRDNTENTVYLQMNSLKPEDTAVYYCWSLLVGPETRYKDFNFWGRGTQVTVSS
light: QAVVTQESALTTSPGETVTLTCRSSTGAVTTSNYANWVQEKPDHLFTGLIGGTNKRAPGVPARFSGSLIGDKAALTITGAQTEDEAIYFCALWYSNLWVFGGGTKVEIKRTVAAPSVFIFPPSDEQLKSGTASVVCLLNNFYPREAKVQWKVDNALQSGNSQESVTEQDSKDSTYSLSSTLTLSKADYEKHKVYACEVTHQGLSSPVTKSFNRGEC
- T cell mediated killing EC50, H-1975 (EGFR+c-Met+) [1]: 0.223 pM
- T cell mediated killing EC50, HT-29 (EGFR+c-Met+) [1]: 0.518 pM
- T cell mediated killing EC50, OSRC2 (EGFR+++c-Met+) [1]: 243 pM
- T cell mediated killing EC50, UT33A (EGFR+++c-Met+++) [1]: 2.7 pM
- T cell mediated killing EC50, UT44 (EGFR+++c-Met++) [1]: 0.156 pM

B4: CEA-BsAb bispecific control antibody (TA1-Fab anti-CD3 x CEA VHH) (bispecific antibody, human IgG4 S228P, kappa, F234A L235A)
heavy: EVKLLESGGGLVQPKGSLKLSCAASGFTFNTYAMNWVRQAPGKGLEWVARIRSKYNNYATYYADSVKDRFTISRDDSQSILYLQMNNLKTEDTAMYYCVRHGNFGNSYVSWFAYWGQGTLVTVSSASTKGPSVFPLAPCSRSTSESTAALGCLVKDYFPEPVTVSWNSGALTSGVHTFPAVLQSSGLYSLSSVVTVPSSSLGTKTYTCNVDHKPSNTKVDKRVESKYGPPCPPCPAPEAAGGPSVFLFPPKPKDTLMISRTPEVTCVVVDVSQEDPEVQFNWYVDGVEVHNAKTKPREEQFNSTYRVVSVLTVLHQDWLNGKEYKCKVSNKGLPSSIEKTISKAKGQPREPQVYTLPPCQEEMTKNQVSLWCLVKGFYPSDIAVEWESNGQPENNYKTTPPVLDSDGSFFLYSRLTVDKSRWQEGNVFSCSVMHEALHNHYTQKSLSLSL
chain: EVQLVESGGGFVQAGESLTLSCTSSTLTFTPYRMAWYRQAPGKQRDLVADISSGDGRTTNYADFAKGRFTISRDNIKNTVFLRMTNLKPEDTAVYYCNTFVSFVGIARSWGQGTQVTVSSESKYGPPCPPCPAPEAAGGPSVFLFPPKPKDTLMISRTPEVTCVVVDVSQEDPEVQFNWYVDGVEVHNAKTKPREEQFNSTYRVVSVLTVLHQDWLNGKEYKCKVSNKGLPSSIEKTISKAKGQPREPQVCTLPPSQEEMTKNQVSLSCAVKGFYPSDIAVEWESNGQPENNYKTTPPVLDSDGSFFLVSRLTVDKSRWQEGNVFSCSVMHEALHNRFTQKSLSLSL
light: B1 light
- BLI-Response (self-interaction) [4]: 0.103 nm

B5: CEA-CAM6-BsAb bispecific control antibody (TA1-Fab anti-CD3 x CEA-CAM6 VHH) (bispecific antibody, human IgG4 S228P, kappa, F234A L235A)
heavy: B4 heavy
chain: QVKLEESGGGLVQAGGSLRLSCRTSGRTNSVYTMGWFRQAPGKEREFVAQIMWGAGTNTHYADSVKGRFTISRDSAESTVYLQMNSLKPEDTAVYYCAANRGIPIAGRQYDYWGQGTQVTVSSESKYGPPCPPCPAPEAAGGPSVFLFPPKPKDTLMISRTPEVTCVVVDVSQEDPEVQFNWYVDGVEVHNAKTKPREEQFNSTYRVVSVLTVLHQDWLNGKEYKCKVSNKGLPSSIEKTISKAKGQPREPQVCTLPPSQEEMTKNQVSLSCAVKGFYPSDIAVEWESNGQPENNYKTTPPVLDSDGSFFLVSRLTVDKSRWQEGNVFSCSVMHEALHNRFTQKSLSLSL
light: B1 light
- BLI-Response (self-interaction) [5]: 0.045 nm

More lines, now with the values ahead:

- BLI-Response (self-interaction) [2]: 0.037 nm
B2: EGFR-BsAb bispecific control antibody (TA1-Fab anti-CD3 x EGFR VHH) (bispecific antibody, human IgG4 S228P, kappa, F234A L235A)
heavy: B4 heavy
chain: QVQLQESGGGSVQAGGSLKLSCAASGRGFSRYAMGWFRQAPGQDREFVATISWTNSTDYADSVKGRFAISRDNAKNTAYLQMNSLKPEDTAVYYCAADKWASSTRSIDYDYWGQGIQVTVSSESKYGPPCPPCPAPEAAGGPSVFLFPPKPKDTLMISRTPEVTCVVVDVSQEDPEVQFNWYVDGVEVHNAKTKPREEQFNSTYRVVSVLTVLHQDWLNGKEYKCKVSNKGLPSSIEKTISKAKGQPREPQVCTLPPSQEEMTKNQVSLSCAVKGFYPSDIAVEWESNGQPENNYKTTPPVLDSDGSFFLVSRLTVDKSRWQEGNVFSCSVMHEALHNRFTQKSLSLSL
light: B1 light

- BLI-Response (self-interaction) [3]: 0.066 nm
B3: HER2-BsAb bispecific control antibody (TA1-Fab anti-CD3 x HER2 VHH) (bispecific antibody, human IgG4 S228P, kappa, F234A L235A)
heavy: B4 heavy
chain: QVQLVQSGGGLVQAGGSLRLSCAASGRTFSSYAMAWFRQAPGKEREFVAAISWSGANIYVADSVKGRFTISRDNAKDTVYLQMNSLKPEDTAVYYCAVKLGFAPVEERQYDYWGQGTQVTVSSESKYGPPCPPCPAPEAAGGPSVFLFPPKPKDTLMISRTPEVTCVVVDVSQEDPEVQFNWYVDGVEVHNAKTKPREEQFNSTYRVVSVLTVLHQDWLNGKEYKCKVSNKGLPSSIEKTISKAKGQPREPQVCTLPPSQEEMTKNQVSLSCAVKGFYPSDIAVEWESNGQPENNYKTTPPVLDSDGSFFLVSRLTVDKSRWQEGNVFSCSVMHEALHNRFTQKSLSLSL
light: B1 light
